Molecular target: lymphoma 4.1-like protein (68/65-kD phosphoprotein doublet) of mouse T-lymphoma cells (mouse (endogenous in BW 5147))
Test: co-sedimentation
Settings: scale: gp 25 per 68/65-kD protein

Chain of lymphoma 4.1-like protein (68/65-kD phosphoprotein doublet) of mouse T-lymphoma cells (mouse (endogenous in BW 5147)) (P48193 whole entry): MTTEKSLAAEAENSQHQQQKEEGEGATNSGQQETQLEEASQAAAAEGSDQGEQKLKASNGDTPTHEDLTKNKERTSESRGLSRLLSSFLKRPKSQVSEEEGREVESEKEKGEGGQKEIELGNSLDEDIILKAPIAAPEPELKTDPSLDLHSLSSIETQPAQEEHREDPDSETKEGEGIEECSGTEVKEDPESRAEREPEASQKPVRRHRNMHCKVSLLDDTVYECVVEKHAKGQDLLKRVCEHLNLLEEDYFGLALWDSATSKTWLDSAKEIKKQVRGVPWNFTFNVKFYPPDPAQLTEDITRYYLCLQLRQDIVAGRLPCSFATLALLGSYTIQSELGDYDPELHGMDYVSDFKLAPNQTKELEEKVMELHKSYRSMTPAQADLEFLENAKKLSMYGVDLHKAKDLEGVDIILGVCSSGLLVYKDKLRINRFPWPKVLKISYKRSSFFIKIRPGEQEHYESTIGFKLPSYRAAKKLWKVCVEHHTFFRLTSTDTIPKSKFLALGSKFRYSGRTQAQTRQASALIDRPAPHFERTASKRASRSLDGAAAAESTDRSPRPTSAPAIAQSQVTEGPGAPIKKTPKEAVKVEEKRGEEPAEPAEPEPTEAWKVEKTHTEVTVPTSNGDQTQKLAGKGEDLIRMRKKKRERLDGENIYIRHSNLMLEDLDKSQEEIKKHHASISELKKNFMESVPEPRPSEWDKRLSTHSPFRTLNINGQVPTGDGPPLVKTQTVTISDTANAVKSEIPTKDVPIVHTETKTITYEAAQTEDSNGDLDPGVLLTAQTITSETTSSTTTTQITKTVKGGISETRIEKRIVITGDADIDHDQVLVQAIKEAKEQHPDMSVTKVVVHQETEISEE

stoichiometry N: 4
B1: Thy-1 glycoprotein (gp 25) of mouse T-lymphoma cells (natural protein)
chain: QKVTSLTACLVNQNLRLDCRHENNTKDNSIQHEFSLTREKRKHVLSGTLGIPEHTYRSRVTLSNQPYIKVLTLANFTTKDEGDYFCELQVSGANPMSSNKSISVYRDKLVKC
modifications: glycoprotein ([3H]glucosamine-labelled); 125I-labelled or unlabelled

From PMC2114603
